For the experiment, the target named is HLA-B*07 (Homo sapiens, UniProt P01889). Kind of experiment: MHC binding assay (UV-ligand exchange, ELISA of stabilized MHC complexes). Conditions: peptide exchange yield on HLA-B*07, UV-ligand exchange. In a few lines: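 Binding is reported as exchange yield: an ELISA with HRP-conjugated anti-β2m (A450, TMB) quantified how much test peptide stabilized MHC after UV cleavage of a photolabile placeholder peptide. Exchange monomers were diluted 100-fold and captured on streptavidin-coated plates for 1 h at 37 °C.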
Background: An ELISA detects its analyte on a solid surface through an enzyme-linked reagent.
On to “94 (LPMSKRQEY; listed as Homo sapiens) [compound 94]”, for which the Peptide exchange entry is “+++ (>50 = +++)”.

Take “184 (KIIASGNHL; listed as Homo sapiens) [compound 184]”: the Peptide exchange result was “++ (>20% = ++)”.

As to “101 (KPGLPGLK; listed as Homo sapiens) [compound 101]”, the Peptide exchange result is reported as “+ (>10% = +)”.

Turning to “353 (KPRATWTL; listed as Homo sapiens) [compound 353]”, the Peptide exchange result is recorded as “+++ (>50 = +++)”.

Consider “450 (SAAARALLP; listed as Homo sapiens) [compound 450]”, for which the Peptide exchange entry was “+ (>10% = +)”.

For the substance “183 (VPRRPARAL; listed as Homo sapiens) [compound 183]”, the Peptide exchange result is listed as “+++ (>50 = +++)”.

Turning to “247 (SPVGVGQRL; listed as Homo sapiens) [compound 247]”, the Peptide exchange result was “+++ (>50 = +++)”.

On to “126 (MPREDAHF; listed as Homo sapiens) [compound 126]”, for which the Peptide exchange entry is “+ (>10% = +)”.

As for “221 (LPQRPNARL; listed as Homo sapiens) [compound 221]”, the Peptide exchange entry was “+++ (>50 = +++)”.

Consider “244 (VPAHLVAA; listed as Homo sapiens) [compound 244]”, for which the Peptide exchange result is “++ (>20% = ++)”.

Turning to “312 (SPSLQSSRESL; listed as Homo sapiens) [compound 312]”, the Peptide exchange result is listed as “+++ (>50 = +++)”.

As to “37 (LPPPRALTL; listed as Homo sapiens) [compound 37]”, the Peptide exchange entry was “+++ (>50 = +++)”.

For the substance “489 (WPNHIMLVL; listed as Homo sapiens) [compound 489]”, the Peptide exchange entry is “++++ (>75% = ++++)”.

On to “133 (LPELPTTLTF; listed as Homo sapiens) [compound 133]”, for which the Peptide exchange entry is “++ (>20% = ++)”.

Take “283 (RPQPGWRESL; listed as Homo sapiens) [compound 283]”: the Peptide exchange result is listed as “++++ (>75% = ++++)”.

On to “206 (TPRIGPKVSL; listed as Homo sapiens) [compound 206]”, for which the Peptide exchange entry was “+++ (>50 = +++)”.

In the case of “449 (RPKTSVNLISSL; listed as Homo sapiens) [compound 449]”, the Peptide exchange result is recorded as “++++ (>75% = ++++)”.

Consider “181 (LPVSPARAL; listed as Homo sapiens) [compound 181]”, for which the Peptide exchange entry was “+++ (>50 = +++)”.

Turning to “259 (VPMPGVQAV; listed as Homo sapiens) [compound 259]”, the Peptide exchange result is recorded as “++++ (>75% = ++++)”.

Take “189 (QPQCSTHIL; listed as Homo sapiens) [compound 189]”: the Peptide exchange entry is recorded as “++++ (>75% = ++++)”.

As to “300 (HPYSDLADVF; listed as Homo sapiens) [compound 300]”, the Peptide exchange result is “+++ (>50 = +++)”.

“76 (KPKVESQAL; listed as Homo sapiens) [compound 76]”: the Peptide exchange entry is recorded as “++++ (>75% = ++++)”.

Turning to “273 (TDTPSTTPTTI; listed as Homo sapiens) [compound 273]”, the Peptide exchange entry is reported as “++ (>20% = ++)”.

For the substance “294 (VPKPAIPSSSVL; listed as Homo sapiens) [compound 294]”, the Peptide exchange result is on record as “++++ (>75% = ++++)”.

As for “334 (YPLSLALHF; listed as Homo sapiens) [compound 334]”, the Peptide exchange entry is reported as “++++ (>75% = ++++)”.

For “279 (APADEPRTVL; listed as Homo sapiens) [compound 279]”, the Peptide exchange entry is given as “+++ (>50 = +++)”.

Take “368 (NPASRLTAL; listed as Homo sapiens) [compound 368]”: the Peptide exchange result is reported as “++++ (>75% = ++++)”.

Regarding “81 (IAYPSLREAAL; listed as Homo sapiens) [compound 81]”, the Peptide exchange result was “++ (>20% = ++)”.

On to “253 (MPVDSFNSML; listed as Homo sapiens) [compound 253]”, for which the Peptide exchange result is “++++ (>75% = ++++)”.

Take “89 (FLIPRAGWLAGL; listed as Homo sapiens) [compound 89]”: the Peptide exchange result is recorded as “++ (>20% = ++)”.

On to “66 (LPMTVISVL; listed as Homo sapiens) [compound 66]”, for which the Peptide exchange result was “++++ (>75% = ++++)”.

On to “162 (IPIRVDQNGAF; listed as Homo sapiens) [compound 162]”, for which the Peptide exchange result is listed as “+++ (>50 = +++)”.

“354 (APAKDARASL; listed as Homo sapiens) [compound 354]”: the Peptide exchange result is given as “++++ (>75% = ++++)”.

On to “18 (MALSVLRLAL; listed as Homo sapiens) [compound 18]”, for which the Peptide exchange result was “++ (>20% = ++)”.

Consider “328 (LPLHRGDLVI; listed as Homo sapiens) [compound 328]”, for which the Peptide exchange result is “+++ (>50 = +++)”.

For the substance “134 (VAAAARLTL; listed as Homo sapiens) [compound 134]”, the Peptide exchange entry is recorded as “+++ (>50 = +++)”.

Take “226 (APGGSSRSSL; listed as Homo sapiens) [compound 226]”: the Peptide exchange entry is on record as “+++ (>50 = +++)”.

In the case of “25 (RPQGAVGGL; listed as Homo sapiens) [compound 25]”, the Peptide exchange entry is recorded as “+++ (>50 = +++)”.

Turning to “62 (KPQSTISGL; listed as Homo sapiens) [compound 62]”, the Peptide exchange result is given as “+++ (>50 = +++)”.

Turning to “131 (MPFRNIRSIL; listed as Homo sapiens) [compound 131]”, the Peptide exchange result was “+++ (>50 = +++)”.

In the case of “69 (RPEDGRPRL; listed as Homo sapiens) [compound 69]”, the Peptide exchange entry is “+++ (>50 = +++)”.

Take “451 (VPILPLNHAL; listed as Homo sapiens) [compound 451]”: the Peptide exchange entry is listed as “++++ (>75% = ++++)”.

As for “236 (TPELKSSIL; listed as Homo sapiens) [compound 236]”, the Peptide exchange entry is “+++ (>50 = +++)”.

“44 (SPSQTVQRAV; listed as Homo sapiens) [compound 44]”: the Peptide exchange result was “++++ (>75% = ++++)”.

“143 (YPMIPPAQL; listed as Homo sapiens) [compound 143]”: the Peptide exchange result is listed as “+++ (>50 = +++)”.

Consider “171 (LPLGGHKSL; listed as Homo sapiens) [compound 171]”, for which the Peptide exchange result is “+++ (>50 = +++)”.

On to “151 (QPTWNTQTRL; listed as Homo sapiens) [compound 151]”, for which the Peptide exchange entry is recorded as “++++ (>75% = ++++)”.

For the substance “28 (LPAPTSLVL; listed as Homo sapiens) [compound 28]”, the Peptide exchange entry was “++++ (>75% = ++++)”.

For the substance “496 (MPAVSGPGPLF; listed as Homo sapiens) [compound 496]”, the Peptide exchange entry is listed as “+++ (>50 = +++)”.

On to “336 (YPLQGPGLLSV; listed as Homo sapiens) [compound 336]”, for which the Peptide exchange entry is “+++ (>50 = +++)”.

For the substance “152 (SSASFSSELFRH; listed as Homo sapiens) [compound 152]”, the Peptide exchange result is given as “+++ (>50 = +++)”.

For “182 (RPLPVSPARAL; listed as Homo sapiens) [compound 182]”, the Peptide exchange result is given as “+++ (>50 = +++)”.

Regarding “232 (TAYPSLRLL; listed as Homo sapiens) [compound 232]”, the Peptide exchange entry is given as “+++ (>50 = +++)”.

For “472 (LPMPAITWY; listed as Homo sapiens) [compound 472]”, the Peptide exchange result was “++ (>20% = ++)”.

Consider “231 (SPITLQAL; listed as Homo sapiens) [compound 231]”, for which the Peptide exchange result is “++++ (>75% = ++++)”.

As to “483 (KPAAAGVKKVA; listed as Homo sapiens) [compound 483]”, the Peptide exchange result is listed as “+++ (>50 = +++)”.

As to “339 (GPQRTTSV; listed as Homo sapiens) [compound 339]”, the Peptide exchange entry is given as “+++ (>50 = +++)”.

On to “493 (LPLQQYKLV; listed as Homo sapiens) [compound 493]”, for which the Peptide exchange entry is “+ (>10% = +)”.

Take “113 (KPHLDRRGAVI; listed as Homo sapiens) [compound 113]”: the Peptide exchange result is reported as “++++ (>75% = ++++)”.

On to “459 (SPAPWRPWI; listed as Homo sapiens) [compound 459]”, for which the Peptide exchange entry is recorded as “++++ (>75% = ++++)”.

On to “212 (VPYAAQAAL; listed as Homo sapiens) [compound 212]”, for which the Peptide exchange entry is given as “++++ (>75% = ++++)”.

Regarding “379 (GPRQVLFPL; listed as Homo sapiens) [compound 379]”, the Peptide exchange result was “++++ (>75% = ++++)”.

Regarding “204 (FPYSGDKILV; listed as Homo sapiens) [compound 204]”, the Peptide exchange result was “+++ (>50 = +++)”.

For “115 (KTKSLAQQL; listed as Homo sapiens) [compound 115]”, the Peptide exchange result is “+++ (>50 = +++)”.

Regarding “173 (VIINNPISL; listed as Homo sapiens) [compound 173]”, the Peptide exchange entry is listed as “++ (>20% = ++)”.

Regarding “208 (RNRQVATAL; listed as Homo sapiens) [compound 208]”, the Peptide exchange result is recorded as “+++ (>50 = +++)”.

As to “42 (APLKMLAL; listed as Homo sapiens) [compound 42]”, the Peptide exchange entry is “++++ (>75% = ++++)”.

Take “30 (YPGFTKRL; listed as Homo sapiens) [compound 30]”: the Peptide exchange result is “+++ (>50 = +++)”.

These data come from patent US20220289816A1, “IMMUNOTHERAPY WITH B*07 RESTRICTED PEPTIDES AND COMBINATION OF PEPTIDES AGAINST CANCERS AND RELATED METHODS” (Immatics Biotechnologies GmbH, priority 2018, published 2022).
